This passage reports protein stability index results from the supplement of paper PMC10567573.

The chains are these.
B1: GLTSCR2 (parent)
chain: FQRRNMIEPRERAKFKRKYKVKLV
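Note: lentivirally expressed fusions sorted by FACS into six bins by GFP to DsRed ratio, PSI derived from sequencing read proportions per bin multiplied by bin number.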

In the data set the parent is B1. Kind of data set: protein stability index of a GFP-peptide fusion (GPS, HEK-293T) (PSI 1-6); higher = more stable. Particulars: c terminus: a fixed tail appended.
As for FQRRNMIEPRERAKFKIKYKVKLV [R17I], the protein stability index is 2.32. The value for FQRRNMIEPRERAKFKNKYKVKLV [R17N] was 2.63. As to FQRRNMIEPRERAKFKAKYKVKLV [R17A], the protein stability index came out at 2.33. To FQRRNMIEPRERAKFKFKYKVKLV [R17F] belongs 1.74.

In the case of FQRRNMIEPRERAKFKWKYKVKLV [R17W], the protein stability index came out at 2.1.

As to FQRRNMIEPRERAKFKQKYKVKLV [R17Q], the protein stability index was found to be 2.07.

In the case of FQRRNMIEPRERAKFKDKYKVKLV [R17D], the protein stability index came out at 2.27.

As to FQRRNMIEPRERAKFKEKYKVKLV [R17E], the protein stability index was determined as 2.24. Take FQRRNMIEPRERAKFKMKYKVKLV [R17M]: the protein stability index stood at 2.94. On to FQRRNMIEPRERAKFKGKYKVKLV [R17G], for which the protein stability index was found to be 1.99.

Regarding FQRRNMIEPRERAKFKKKYKVKLV [R17K], the protein stability index is 2.79. Turning to FQRRNMIEPRERAKFKTKYKVKLV [R17T], the protein stability index was determined as 2.56. For the variant FQRRNMIEPRERAKFKVKYKVKLV [R17V], the protein stability index was found to be 1.96. FQRRNMIEPRERAKFKHKYKVKLV [R17H]: the protein stability index is 1.89. Turning to FQRRNMIEPRERAKFKLKYKVKLV [R17L], the protein stability index worked out at 2.45.

In the case of FQRRNMIEPRERAKFKCKYKVKLV [R17C], the protein stability index is 2.18. Turning to FQRRNMIEPRERAKFKSKYKVKLV [R17S], the protein stability index is 2.77.

In the case of FQRRNMIEPRERAKFKPKYKVKLV [R17P], the protein stability index amounted to 2.46.

For FQRRNMIEPRERAKFKYKYKVKLV [R17Y], the protein stability index worked out at 1.65. For the variant FQRRNMIEPRERAKFKRKCKVKLV [Y19C], the protein stability index was determined as 2.65. The value for FQRRNMIEPRERAKFKRKAKVKLV [Y19A] was 2.46; that for FQRRNMIEPRERAKFKRKDKVKLV [Y19D] was 3.03; that for FQRRNMIEPRERAKFKRAYKVKLV [K18A] was 2.25. Turning to FQRRNMIEPRERAKFKRLYKVKLV [K18L], the protein stability index came to 1.72. To FQRRNMIEPRERAKFKRFYKVKLV [K18F] belongs 1.61; to FQRRNMIEPRERAKFKREYKVKLV [K18E], 2.39.

Regarding FQRRNMIEPRERAKFKRRYKVKLV [K18R], the protein stability index worked out at 2.32.

Regarding FQRRNMIEPRERAKFKRDYKVKLV [K18D], the protein stability index was 2.64. Consider FQRRNMIEPRERAKFKRSYKVKLV [K18S], for which the protein stability index stood at 2.63.

On to FQRRNMIEPRERAKFKRNYKVKLV [K18N], for which the protein stability index turned out to be 2.4.

On to FQRRNMIEPRERAKFKRQYKVKLV [K18Q], for which the protein stability index is 2.51. Regarding FQRRNMIEPRERAKFKRHYKVKLV [K18H], the protein stability index is 2.29.

For the variant FQRRNMIEPRERAKFKRTYKVKLV [K18T], the protein stability index worked out at 2.24.

FQRRNMIEPRERAKFKRIYKVKLV [K18I]: the protein stability index was found to be 2.45. The value for FQRRNMIEPRERAKFKRMYKVKLV [K18M] was 2.22; that for FQRRNMIEPRERAKFKRVYKVKLV [K18V] was 2.78; that for FQRRNMIEPRERAKFKRWYKVKLV [K18W] was 2.3.

Consider FQRRNMIEPRERAKFKRCYKVKLV [K18C], for which the protein stability index came to 2.05. For the variant FQRRNMIEPRERAKFKRYYKVKLV [K18Y], the protein stability index came out at 1.71.

As for FQRRNMIEPRERAKFKRPYKVKLV [K18P], the protein stability index amounted to 1.92. Take FQRRNMIEPRERAKFKRGYKVKLV [K18G]: the protein stability index amounted to 1.98. The value for FQRRNMIEPRERAKFLRKYKVKLV [K16L] was 2.53; that for FQRRNMIEPRERAKFYRKYKVKLV [K16Y] was 2.03. Turning to FQRRNMIEPRERAKFTRKYKVKLV [K16T], the protein stability index was 2.29.

Regarding FQRRNMIEPRERAKFDRKYKVKLV [K16D], the protein stability index was 2.63.

Consider FQRRNMIEPRERAKFMRKYKVKLV [K16M], for which the protein stability index was 2.07.

On to FQRRNMIEPRERAKFARKYKVKLV [K16A], for which the protein stability index was 1.62. In the case of FQRRNMIEPRERAKFVRKYKVKLV [K16V], the protein stability index came out at 1.86. As to FQRRNMIEPRERAKFWRKYKVKLV [K16W], the protein stability index was determined as 2.7. The value for FQRRNMIEPRERAKFNRKYKVKLV [K16N] was 2.48. Take FQRRNMIEPRERAKFSRKYKVKLV [K16S]: the protein stability index amounted to 2.42. Regarding FQRRNMIEPRERAKFQRKYKVKLV [K16Q], the protein stability index was 1.87. On to FQRRNMIEPRERAKFRRKYKVKLV [K16R], for which the protein stability index stood at 2.73. The value for FQRRNMIEPRERAKFFRKYKVKLV [K16F] was 2.4; that for FQRRNMIEPRERAKFIRKYKVKLV [K16I] was 2.64; that for FQRRNMIEPRERAKFPRKYKVKLV [K16P] was 1.28.

Take FQRRNMIEPRERAKFGRKYKVKLV [K16G]: the protein stability index came to 2.18. To FQRRNMIEPRERAKFERKYKVKLV [K16E] belongs 1.86; to FQRRNMIEPRERAKFHRKYKVKLV [K16H], 2.32. As to FQRRNMIEPRERAKFCRKYKVKLV [K16C], the protein stability index turned out to be 1.87. To FQRRNMIEPRERANFKRKYKVKLV [K14N] belongs 2.02; to FQRRNMIEPRERATFKRKYKVKLV [K14T], 2.33. With FQRRNMIEPRERAYFKRKYKVKLV [K14Y], the protein stability index was 2.39.

For the variant FQRRNMIEPRERALFKRKYKVKLV [K14L], the protein stability index amounted to 1.82. To FQRRNMIEPRERAIFKRKYKVKLV [K14I] belongs 2.5; to FQRRNMIEPRERAFFKRKYKVKLV [K14F], 2.77. As for FQRRNMIEPRERAWFKRKYKVKLV [K14W], the protein stability index stood at 2.85.

Turning to FQRRNMIEPRERARFKRKYKVKLV [K14R], the protein stability index is 2.02. The value for FQRRNMIEPRERASFKRKYKVKLV [K14S] was 2.3; that for FQRRNMIEPRERAMFKRKYKVKLV [K14M] was 1.97; that for FQRRNMIEPRERAGFKRKYKVKLV [K14G] was 1.39. With FQRRNMIEPRERAQFKRKYKVKLV [K14Q], the protein stability index came out at 1.99. The value for FQRRNMIEPRERAHFKRKYKVKLV [K14H] was 2.03; that for FQRRNMIEPRERAPFKRKYKVKLV [K14P] was 1.68; that for FQRRNMIEPRERAVFKRKYKVKLV [K14V] was 2.17.

Consider FQRRNMIEPRERAKRKRKYKVKLV [F15R], for which the protein stability index was found to be 3.73. FQRRNMIEPRERAKKKRKYKVKLV [F15K]: the protein stability index amounted to 3.05. The value for FQRRNMIEPRERAKYKRKYKVKLV [F15Y] was 2.7; that for FQRRNMIEPRERAKWKRKYKVKLV [F15W] was 2.12; that for FQRRNMIEPRERAKHKRKYKVKLV [F15H] was 3.14. FQRRNMIEPRERAKDKRKYKVKLV [F15D]: the protein stability index came to 2.32.

Turning to FQRRNMIEPRERAKNKRKYKVKLV [F15N], the protein stability index turned out to be 2.69. To FQRRNMIEPRERAKPKRKYKVKLV [F15P] belongs 2.44. Regarding FQRRNMIEPRERAKLKRKYKVKLV [F15L], the protein stability index was found to be 3.05. In the case of FQRRNMIEPRERAKTKRKYKVKLV [F15T], the protein stability index came to 2.66. On to FQRRNMIEPRERAKCKRKYKVKLV [F15C], for which the protein stability index stood at 2.67.

In the case of FQRRNMIEPRERAKMKRKYKVKLV [F15M], the protein stability index came to 2.76.

Regarding FQRRNMIEPRERAKAKRKYKVKLV [F15A], the protein stability index was determined as 2.65. Take FQRRNMIEPRERAKVKRKYKVKLV [F15V]: the protein stability index came out at 2.81. FQRRNMIEPRERAKGKRKYKVKLV [F15G]: the protein stability index was 2.96. Regarding FQRRNMIEPRERAKEKRKYKVKLV [F15E], the protein stability index is 2.97. For the variant FQRRNMIEPRERAKSKRKYKVKLV [F15S], the protein stability index is 3.08.

With FQRRNMIEPRERAKIKRKYKVKLV [F15I], the protein stability index turned out to be 2.51. To FQRRNMIEPRERAKQKRKYKVKLV [F15Q] belongs 2.96.
